Laboratory results: patent US20160146827A1

Molecular target: GST-tagged PAK1-PBD protein (Cytoskeleton Inc.), Rac/Cdc42 (p21) binding domain of human p21 activated kinase 1, residues 67-150 (human) (UniProt Q13153)
Assay: fluorescence anisotropy in solution

Chain of GST-tagged PAK1-PBD protein (Cytoskeleton Inc.), Rac/Cdc42 (p21) binding domain of human p21 activated kinase 1, residues 67-150 (human) (Q13153 67-150 limits assumed): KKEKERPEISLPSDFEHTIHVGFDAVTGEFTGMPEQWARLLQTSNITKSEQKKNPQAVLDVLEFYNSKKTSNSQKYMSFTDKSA

“LUMP-Cdc42, fusion protein of LUMP with the constitutively active GTPase Cdc42 (Q61L) connected by a ten amino acid flexible linker (…) (from UniProt Q06877 1-186; P60953 1-191)” showed an anisotropy (before addition) of 0.19, an anisotropy (bound) of 0.22 and an increase in anisotropy on binding of 14%.
